Experimental data reported in patent publication US20240158499A1 (Janssen / Centocor, published 2024).

Columns and labels:
[1] = biological target: T1, extracellular domain (ECD) of human CD79B isoform 2, CD9W8 (human); experiment: SPR; hCD79B-short
T1 construct: It also carries C-terminal tag residues ending in a 6xHis tag; also called CD79b short isoform; hCD79B-short
T1 chain: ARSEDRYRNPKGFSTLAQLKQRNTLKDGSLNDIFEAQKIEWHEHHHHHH

[2] = biological target: T2, extracellular domain (ECD) of human CD79B isoform 1, CD9W7 (human); experiment: SPR; hCD79B-long
T2 construct: It also carries C-terminal tag residues ending in a 6xHis tag; also called CD79b long isoform; hCD79B-long
T2 chain: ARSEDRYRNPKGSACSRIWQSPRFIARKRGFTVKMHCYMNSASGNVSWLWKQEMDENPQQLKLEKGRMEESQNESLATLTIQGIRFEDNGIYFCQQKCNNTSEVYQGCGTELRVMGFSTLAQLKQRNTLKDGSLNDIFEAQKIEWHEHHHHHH

Kd [1]: 2.21 nM | Kd [2]: 0.78 nM
B1: CD9B1256 (antibody, V domains shown)
VH: EVQLVESGPGLVEPSETLSLTCTVSGGSISSYYWSWIRQPAGKGLEWIGRIYSSGSTNYNPSLKSRVTMSVDTSENQFSLNLNSVTAADTAKYYCARGEYSGDLGGYGLDVWGQGTMVTVSS
VL: EIVMTQSPLSLSVTPGEPASISCRSSQSLLDSDDGNTYLDWYLQKPGQSPQLLIQTLSYRASGVPDRFSGRGSGTDFTLKISRVEAEDVGIYYCMQRMEFPLTFGGGTKVDIKR
notes: also called VR000056263
